{"source": "paper PMC9772228", "about": "“Structure of a RecT/Redβ family recombinase in complex with a duplex intermediate of DNA annealing”", "test_in_all_cases": "EMSA; EMSA: PBS pH 7.4 (or KH2PO4/10 mM MgCl2 pH 6.0), 3.6 or 5 uM protein, 25 uM nt DNA, 37 C 15 min per strand, 0.8% agarose 1x TBE; cryo-EM: 20 mM KH2PO4 (Results: 10 mM), 10 mM MgCl2 pH 6.0, 37 C; native MS: 100 mM ammonium acetate pH 7, 37 C", "conditions_in_all_cases": "protein: recombinant, tags: N-terminal 6His vector tag (20 aa) retained, chain copies: 10", "key": {"[1]": {"molecular_target": "T1, LiRecT Y100E (Listeria innocua CLIP 11262, UniProt Q92FL9 1-271, Y100E)", "T1 sequence": "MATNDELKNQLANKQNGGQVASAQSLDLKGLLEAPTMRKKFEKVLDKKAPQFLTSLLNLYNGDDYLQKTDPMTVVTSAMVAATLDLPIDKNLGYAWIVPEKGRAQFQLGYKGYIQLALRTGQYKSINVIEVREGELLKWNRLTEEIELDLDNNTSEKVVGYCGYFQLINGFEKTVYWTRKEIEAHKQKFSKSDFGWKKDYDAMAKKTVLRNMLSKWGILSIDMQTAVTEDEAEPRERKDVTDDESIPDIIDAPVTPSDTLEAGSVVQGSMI"}, "[2]": {"molecular_target": "T2, LiRecT V98W (Listeria innocua CLIP 11262, UniProt Q92FL9 1-271, V98W)", "T2 sequence": "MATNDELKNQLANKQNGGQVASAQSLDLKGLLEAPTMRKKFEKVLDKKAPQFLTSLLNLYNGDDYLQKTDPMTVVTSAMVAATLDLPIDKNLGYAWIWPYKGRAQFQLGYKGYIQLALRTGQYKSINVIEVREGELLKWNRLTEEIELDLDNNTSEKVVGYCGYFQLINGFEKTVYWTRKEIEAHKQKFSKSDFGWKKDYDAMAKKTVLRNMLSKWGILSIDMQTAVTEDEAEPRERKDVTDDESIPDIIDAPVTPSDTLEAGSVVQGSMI"}, "[3]": {"molecular_target": "T3, LiRecT V98A/Y100A (Listeria innocua CLIP 11262, UniProt Q92FL9 1-271, V98A;Y100A)", "T3 sequence": "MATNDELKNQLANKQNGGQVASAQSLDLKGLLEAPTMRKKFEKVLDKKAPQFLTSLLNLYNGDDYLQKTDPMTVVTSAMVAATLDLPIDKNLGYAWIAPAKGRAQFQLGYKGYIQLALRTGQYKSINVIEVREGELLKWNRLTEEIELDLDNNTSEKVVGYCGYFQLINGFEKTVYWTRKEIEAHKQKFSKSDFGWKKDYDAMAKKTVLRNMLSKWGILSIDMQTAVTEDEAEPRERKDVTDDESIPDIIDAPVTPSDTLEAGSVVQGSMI"}, "[4]": {"molecular_target": "T4, LiRecT V98A/Y100A/Q107A (Listeria innocua CLIP 11262, UniProt Q92FL9 1-271, V98A;Y100A;Q107A)", "T4 sequence": "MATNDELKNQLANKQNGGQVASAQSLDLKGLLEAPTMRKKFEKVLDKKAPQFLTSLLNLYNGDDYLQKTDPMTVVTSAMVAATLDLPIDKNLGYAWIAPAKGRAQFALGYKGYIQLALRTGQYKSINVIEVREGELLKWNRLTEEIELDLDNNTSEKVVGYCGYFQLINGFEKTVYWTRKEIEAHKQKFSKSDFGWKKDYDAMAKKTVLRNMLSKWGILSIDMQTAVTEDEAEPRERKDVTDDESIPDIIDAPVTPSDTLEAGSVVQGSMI"}, "[5]": {"molecular_target": "T5, LiRecT K215A/W216A (Listeria innocua CLIP 11262, UniProt Q92FL9 1-271, K215A;W216A)", "T5 sequence": "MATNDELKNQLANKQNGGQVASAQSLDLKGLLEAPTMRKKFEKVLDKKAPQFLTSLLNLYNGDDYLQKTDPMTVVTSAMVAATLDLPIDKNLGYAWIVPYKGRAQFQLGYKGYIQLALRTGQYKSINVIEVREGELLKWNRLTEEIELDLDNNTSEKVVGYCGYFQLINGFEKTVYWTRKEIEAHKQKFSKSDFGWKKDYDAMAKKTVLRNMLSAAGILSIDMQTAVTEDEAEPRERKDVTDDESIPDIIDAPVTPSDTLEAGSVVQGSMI"}, "[6]": {"conditions": "label: 5'-Cy3;5'-Cy5, 49 bp, 1 nt 5' overhang at each end"}}, "data": [{"binder": "CCATCCGCAAAAATCGAGCTATGCAGGGCGATTCTGCTCTAAGCCATCCG (ssDNA)", "note": "[Cy5-50mer]", "values": [{"measurement": "binding result", "setting": "[1]; label: 5'-Cy5, single strand", "result": "binds"}, {"measurement": "binding result", "setting": "[2]; label: 5'-Cy5, single strand", "result": "binds"}, {"measurement": "binding result", "setting": "[3]; label: 5'-Cy5, single strand", "result": "binds"}, {"measurement": "binding result", "setting": "[4]; label: 5'-Cy5, single strand", "result": "binds"}, {"measurement": "binding result", "setting": "[5]; label: 5'-Cy5, single strand", "result": "no binding"}]}, {"binder": "50-mer duplex intermediate (sequential addition) (dsDNA) DNA 1: GCGGATGGCTTAGAGCAGAATCGCCCTGCATAGCTCGATTTTTGCGGATG DNA 2: CCATCCGCAAAAATCGAGCTATGCAGGGCGATTCTGCTCTAAGCCATCCG", "values": [{"measurement": "binding result", "setting": "[1]; [6]", "result": "binds"}, {"measurement": "binding result", "setting": "[2]; [6]", "result": "binds"}, {"measurement": "binding result", "setting": "[3]; [6]", "result": "binds"}, {"measurement": "binding result", "setting": "[4]; [6]", "result": "binds"}, {"measurement": "binding result", "setting": "[5]; [6]", "result": "no binding"}]}, {"binder": "GCGGATGGCTTAGAGCAGAATCGCCCTGCATAGCTCGATTTTTGCGGATG (ssDNA)", "note": "[Cy3-50mer]", "values": [{"measurement": "binding result", "setting": "[1]; label: 5'-Cy3, single strand", "result": "binds"}, {"measurement": "binding result", "setting": "[2]; label: 5'-Cy3, single strand", "result": "binds"}, {"measurement": "binding result", "setting": "[3]; label: 5'-Cy3, single strand", "result": "binds"}, {"measurement": "binding result", "setting": "[4]; label: 5'-Cy3, single strand", "result": "binds"}, {"measurement": "binding result", "setting": "[5]; label: 5'-Cy3, single strand", "result": "no binding"}]}]}
